Data from publication PMC12148503, “Molecular Basis of Interchain Disulfide Bond Formation in BMP-9 and BMP-10” (Journal of molecular biology, 2025).
Each block holds one molecule with its values, some of them ahead of it.

Columns and labels:
[1] = molecular target: BMP-9 monomer (cysteinylated BMP-9 growth factor) (human) (UniProt Q9UK05)
[2] = molecular target: BMP-9 disulfide-linked dimer (wild-type growth factor) (human) (UniProt Q9UK05)
[3] = molecular target: T1, Pro-(X)-BMP-10 R353K, O95393; assay: SDS-PAGE densitometry; details: chain shown with the change; IMAC column purified Pro-BMP-10
T1 chain: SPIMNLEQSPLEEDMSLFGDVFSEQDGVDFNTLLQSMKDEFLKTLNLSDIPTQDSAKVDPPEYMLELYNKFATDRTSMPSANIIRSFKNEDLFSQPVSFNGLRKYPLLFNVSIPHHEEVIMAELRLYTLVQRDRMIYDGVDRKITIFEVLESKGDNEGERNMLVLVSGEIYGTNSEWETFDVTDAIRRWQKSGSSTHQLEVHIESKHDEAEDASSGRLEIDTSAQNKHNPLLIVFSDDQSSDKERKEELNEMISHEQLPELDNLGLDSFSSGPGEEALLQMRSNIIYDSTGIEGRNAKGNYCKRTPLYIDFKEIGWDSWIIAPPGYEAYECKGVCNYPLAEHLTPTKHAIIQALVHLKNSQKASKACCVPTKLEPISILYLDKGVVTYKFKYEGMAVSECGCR

[4] = molecular target: BMP-10 monomer (cysteinylated BMP-10 growth factor) (human) (UniProt O95393)
[5] = molecular target: BMP-10 disulfide-linked dimer (growth factor) (human) (UniProt O95393)

Molecule: BMP-9 monomer (cysteinylated BMP-9 growth factor) (from UniProt Q9UK05 320-429) (ligand)
EC50 of pSMAD1/5/9 (western blot) in serum-starved HUVECs treated for 45 min with BMP-9 monomer, 0.01-54 ng/mL [1]: 124 pM

Molecule: BMP-9 disulfide-linked dimer (wild-type growth factor) (from UniProt Q9UK05 320-429) (ligand)
EC50 of pSMAD1/5/9 (western blot) in serum-starved HUVECs treated for 45 min with BMP-9 disulfide-linked dimer, 0.001-1.62 ng/mL [2]: 3.3 pM

B2: BMP-10 monomer (cysteinylated BMP-10 growth factor) (ligand)
chain: NAKGNYCKRTPLYIDFKEIGWDSWIIAPPGYEAYECRGVCNYPLAEHLTPTKHAIIQALVHLKNSQKASKACCVPTKLEPISILYLDKGVVTYKFKYEGMAVSECGCR
modifications: cysteinylated (+119 Da; the paper places it on the interchain cysteine)
EC50 of pSMAD1/5/9 (western blot) in serum-starved HUVECs treated for 45 min with BMP-10 monomer, 0.01-54 ng/mL [4]: 164 pM

Second part, the molecule after the results:

other: disulfide-linked dimer over monomer ratio [3]: 0.9
B1: Pro-(X)-BMP-10, O95393 R353K (protein)
chain: SPIMNLEQSPLEEDMSLFGDVFSEQDGVDFNTLLQSMKDEFLKTLNLSDIPTQDSAKVDPPEYMLELYNKFATDRTSMPSANIIRSFKNEDLFSQPVSFNGLRKYPLLFNVSIPHHEEVIMAELRLYTLVQRDRMIYDGVDRKITIFEVLESKGDNEGERNMLVLVSGEIYGTNSEWETFDVTDAIRRWQKSGSSTHQLEVHIESKHDEAEDASSGRLEIDTSAQNKHNPLLIVFSDDQSSDKERKEELNEMISHEQLPELDNLGLDSFSSGPGEEALLQMRSNIIYDSTGIEGRNAKGNYCKRTPLYIDFKEIGWDSWIIAPPGYEAYECKGVCNYPLAEHLTPTKHAIIQALVHLKNSQKASKACCVPTKLEPISILYLDKGVVTYKFKYEGMAVSECGCR

EC50 of pSMAD1/5/9 (western blot) in serum-starved HUVECs treated for 45 min with BMP-10 disulfide-linked dimer, 0.001-1.62 ng/mL [5]: 5.9 pM
B3: BMP-10 disulfide-linked dimer (growth factor) (ligand)
chain: NAKGNYCKRTPLYIDFKEIGWDSWIIAPPGYEAYECRGVCNYPLAEHLTPTKHAIIQALVHLKNSQKASKACCVPTKLEPISILYLDKGVVTYKFKYEGMAVSECGCR
modifications: interchain disulfide
